Assays:
[1] = target: soluble human FcγRIIIa ectodomain (human) (UniProt P08637); assay: SPR (Biacore T200), mAb on Protein G chip, soluble FcγR ectodomain as analyte
[2] = target: soluble human FcγRIIa ectodomain (human) (UniProt P12318); assay: as above
[3] = target: soluble human FcγRIIb ectodomain (human) (UniProt P31994); assay: as above
[4] = target: Rituximab G2 (galactosylated afucosylated glycoform); assay: SPR, 256 to 8 nM
[5] = target: Rituximab G2F (galactosylated fucosylated glycoform); assay: SPR, 256 to 8 nM

Chain of soluble human FcγRIIb ectodomain (human) (P31994 43-217): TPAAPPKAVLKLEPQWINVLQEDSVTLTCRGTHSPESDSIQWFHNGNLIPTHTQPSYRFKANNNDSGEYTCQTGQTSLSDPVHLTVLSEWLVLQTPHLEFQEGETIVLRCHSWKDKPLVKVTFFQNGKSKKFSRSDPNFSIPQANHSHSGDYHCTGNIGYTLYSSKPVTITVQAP
Chain of tetrameric FcγRIIIA (P08637 17-208 limits assumed): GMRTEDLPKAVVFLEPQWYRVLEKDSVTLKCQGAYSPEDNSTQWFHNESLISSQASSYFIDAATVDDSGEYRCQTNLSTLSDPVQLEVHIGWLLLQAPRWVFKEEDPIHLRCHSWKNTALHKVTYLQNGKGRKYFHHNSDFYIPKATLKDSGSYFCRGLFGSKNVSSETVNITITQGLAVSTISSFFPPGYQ

Substance | Kd [1] [nM] | Fold (affinity relative to Wild-type) [2] [fold] | Kd [2] [nM] | Fold (affinity relative to Wild-type) [3] [fold] | Kd [3] [nM] | KD1 [4] [nM] | KD2 [4] [nM] | KD1 [5] [nM] | KD2 [5] [nM] | Fold (affinity relative to Wild-type) [1] [fold]
tetrameric FcγRIIIA (from UniProt P08637 17-208) (receptor) | – | – | – | – | – | 29.9 | 2.3 | 55.2 | 2.29 | –
human IgG1 Fc variant: Wild-type (antibody) | 740 | 1 | 1030 | – | 3110 | – | – | – | – | 1
human IgG1 Fc variant: Afucosylated (antibody) | – | – | 747 | – | 2220 | – | – | – | – | –
human IgG1 Fc variant: ALIE (antibody) | 169 | 0.5 | 2070 | 0.8 | 3920 | – | – | – | – | –

More lines, in order of falling Kd [2], values ahead:

Kd [1] [nM] | Fold (affinity relative to Wild-type) [2] [fold] | Kd [2] [nM] | Fold (affinity relative to Wild-type) [3] [fold] | Kd [3] [nM] | KD1 [4] [nM] | KD2 [4] [nM] | KD1 [5] [nM] | KD2 [5] [nM] | Fold (affinity relative to Wild-type) [1] [fold] | Substance
218 | 2.7 | 387 | 0.8 | 4150 | – | – | – | – | – | human IgG1 Fc variant: GAALIE (antibody)
903 | 5.5 | 186 | 1.1 | 2890 | – | – | – | – | 0.8 | human IgG1 Fc variant printed 'GAALIE' in the second such row of Table 9 (r13) (antibody)

Source: US20250188193A1
